In patent US10428140B2, “Anti-EphA4 antibody” (EISAI R&D MANAGEMENT CO., LTD., priority 2015, dated 2019):
Numbering of substitutions follows the chain as printed.

B1: 139 (antibody)
VH: QVQLVQSGSELKKPGASVKVSCKASGYTFTDYSMHWVRQAPGQGLEWMGWINTETGEPTYAQGFTGRFVFSLDTSVSTAYLQISSLKAEDTAVYYCARIPLYYYGSRYWYFDVWGQGTTVTVSS
VL: DIQMTQSPSSLSASVGDRVTITCRASENIYRNLAWYQQKPGKAPKLLVYAATNLADGVPSRFSGSGSGTDYTLTISSLQPEDFATYYCQHFWGTPWTFGQGTKVEIK
chain: ASTKGPSVFPLAPSSRSTSESTAALGCLVKDYFPEPVTVSWNSGALTSGVHTFPAVLQSSGLYSLSSVVTVPSSNFGTQTYTCNVDHKPSNTKVDKTVERKSCVECPPCPAPPAAAPSVFLFPPKPKDTLMISRTPEVTCVVVDVSHEDPEVQFNWYVDGVEVHNAKTKPREEQFNSTFRVVSVLTVVHQDWLNGKEYKCKVSNKGLPAPIEKTISKTKGQPREPQVYTLPPSREEMTKNQVSLTCLVKGFYPSDIAVEWESNGQPENNYKTTPPMLDSDGSFFLYSKLTVDKSRWQQGNVFSCSVMHEALHNHYTQKSLSLSPG
modifications: synthetic humanized antibody heavy chain variable region sequence; synthetic humanized antibody light chain variable region sequence; synthetic antibody constant region sequence
B2: 140 (antibody, V domains shown)
VH: B1 VH with E46K
VL: B1 VL
modifications: synthetic humanized antibody heavy chain variable region sequence; synthetic humanized antibody light chain variable region sequence
B3: 141 (antibody, V domains shown)
VH: B1 VH with Q62D, G63D, T65K
VL: B1 VL
modifications: synthetic humanized antibody heavy chain variable region sequence; synthetic humanized antibody light chain variable region sequence
B4: 154 (antibody, V domains shown)
VH: B1 VH with Q62D, G63D, T65K
VL: B1 VL with V48L, P80S
modifications: synthetic humanized antibody heavy chain variable region sequence; synthetic humanized antibody light chain variable region sequence
B5: 145 (antibody, V domains shown)
VH: B1 VH with E46K, Q62D, G63D, T65K
VL: B1 VL with V48L, P80S
modifications: synthetic humanized antibody heavy chain variable region sequence; synthetic humanized antibody light chain variable region sequence
B6: 142 (antibody, V domains shown)
VH: B1 VH with E46K, Q62D, G63D, T65K
VL: B1 VL
modifications: synthetic humanized antibody heavy chain variable region sequence; synthetic humanized antibody light chain variable region sequence
B7: 151 (antibody, V domains shown)
VH: B1 VH with V2I, E46K
VL: B1 VL with V48L, P80S
modifications: synthetic humanized antibody heavy chain variable region sequence; synthetic humanized antibody light chain variable region sequence
B8: 153 (antibody, V domains shown)
VH: B1 VH with E46K
VL: B1 VL with V48L, P80S
modifications: synthetic humanized antibody heavy chain variable region sequence; synthetic humanized antibody light chain variable region sequence
B9: 138 (antibody, V domains shown)
VH: B1 VH with V2I, E46K
VL: B1 VL
modifications: synthetic humanized antibody heavy chain variable region sequence; synthetic humanized antibody light chain variable region sequence
B10: 143 (antibody, V domains shown)
VH: B1 VH with V2I, E46K, Q62D, G63D, T65K
VL: B1 VL
modifications: synthetic humanized antibody heavy chain variable region sequence; synthetic humanized antibody light chain variable region sequence
B11: 152 (antibody, V domains shown)
VH: B1 VH
VL: B1 VL with V48L, P80S
modifications: synthetic humanized antibody heavy chain variable region sequence; synthetic humanized antibody light chain variable region sequence

Key:
Assay in all cases: Selectivity ELISA of humanized antibodies for human Eph receptor
Assay type in all cases: binding
Settings in all cases: coated protein 1 nM
human EphA1 = target: T1, human EphA1 (Homo sapiens, UniProt P21709)
T1 construct: a protein of the extracellular region of each human Eph receptor fused with the SEAP protein and the His tag; made in house; host or cells: Expi293F cells (culture supernatant)
T1 sequence (P21709 26-547 limits assumed): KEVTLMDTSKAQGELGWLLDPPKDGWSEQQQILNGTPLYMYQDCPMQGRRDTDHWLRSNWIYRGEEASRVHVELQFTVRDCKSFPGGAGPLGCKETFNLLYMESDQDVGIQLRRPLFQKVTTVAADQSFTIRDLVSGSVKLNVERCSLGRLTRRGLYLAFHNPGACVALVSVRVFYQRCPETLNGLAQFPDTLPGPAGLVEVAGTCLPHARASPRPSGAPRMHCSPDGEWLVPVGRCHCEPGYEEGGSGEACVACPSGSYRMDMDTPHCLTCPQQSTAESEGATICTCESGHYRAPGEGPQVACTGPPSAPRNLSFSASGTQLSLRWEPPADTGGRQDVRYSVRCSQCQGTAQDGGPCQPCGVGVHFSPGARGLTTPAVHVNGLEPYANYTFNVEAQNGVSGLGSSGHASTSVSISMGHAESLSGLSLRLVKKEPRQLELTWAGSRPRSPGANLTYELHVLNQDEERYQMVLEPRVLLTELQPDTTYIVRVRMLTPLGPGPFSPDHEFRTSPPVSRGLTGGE
Procedure, shortened: (§1)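 Steps: coat anti-His antibody; block, then 1% BlockAce overnight at 4 °C; add Eph receptor extracellular region-SEAP-His (1 nM final) 1 h; add humanized antibody 1 h; add HRP anti-IgG 1 h; develop TMB; stop with acid; read 450 nm.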

human EphB4 = target: T2, human EphB4 (Homo sapiens, UniProt P54760)
T2 construct: a protein of the extracellular region of each human Eph receptor fused with the SEAP protein and the His tag; made in house; host or cells: Expi293F cells
T2 sequence (P54760 16-539 limits assumed): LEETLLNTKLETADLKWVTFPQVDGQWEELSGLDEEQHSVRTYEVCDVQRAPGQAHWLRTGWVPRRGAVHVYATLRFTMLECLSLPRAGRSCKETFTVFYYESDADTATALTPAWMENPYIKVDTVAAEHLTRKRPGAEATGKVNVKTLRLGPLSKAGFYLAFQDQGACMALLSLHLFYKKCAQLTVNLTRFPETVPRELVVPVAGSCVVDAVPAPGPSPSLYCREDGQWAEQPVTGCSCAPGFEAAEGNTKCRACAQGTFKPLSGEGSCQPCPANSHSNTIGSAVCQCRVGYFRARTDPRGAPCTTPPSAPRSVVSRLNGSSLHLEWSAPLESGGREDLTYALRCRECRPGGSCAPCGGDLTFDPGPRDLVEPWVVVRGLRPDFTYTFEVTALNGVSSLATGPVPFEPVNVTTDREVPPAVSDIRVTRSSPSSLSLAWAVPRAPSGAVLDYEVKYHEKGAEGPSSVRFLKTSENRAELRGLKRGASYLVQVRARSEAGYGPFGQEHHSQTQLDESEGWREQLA
Procedure, shortened: as §1

human EphB6 = target: T3, human EphB6 (Homo sapiens, UniProt O15197)
T3 construct: a protein of the extracellular region of each human Eph receptor fused with the SEAP protein and the His tag; made in house; host or cells: Expi293F cells
T3 sequence (O15197 32-594 limits assumed): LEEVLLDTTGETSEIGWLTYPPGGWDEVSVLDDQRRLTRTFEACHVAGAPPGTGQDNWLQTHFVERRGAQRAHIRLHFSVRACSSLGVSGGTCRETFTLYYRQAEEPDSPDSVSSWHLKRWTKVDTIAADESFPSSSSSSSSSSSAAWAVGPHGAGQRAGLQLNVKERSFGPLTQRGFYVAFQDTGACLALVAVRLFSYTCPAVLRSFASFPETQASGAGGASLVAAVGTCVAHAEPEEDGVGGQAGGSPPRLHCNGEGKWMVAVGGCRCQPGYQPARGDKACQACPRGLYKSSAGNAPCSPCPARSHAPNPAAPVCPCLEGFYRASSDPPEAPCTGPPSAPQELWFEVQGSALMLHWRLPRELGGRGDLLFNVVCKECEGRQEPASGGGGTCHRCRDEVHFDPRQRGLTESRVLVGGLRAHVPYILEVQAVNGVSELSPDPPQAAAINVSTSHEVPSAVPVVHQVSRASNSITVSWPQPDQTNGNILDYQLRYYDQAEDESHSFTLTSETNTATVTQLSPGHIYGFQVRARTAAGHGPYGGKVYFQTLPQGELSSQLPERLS
Procedure, shortened: as §1

| Molecule | hEphA1-SEAP-: absorbance at 450 nm, percentage with respect to hEphA4-SEAP-His as 100% (human EphA1) [%] | hEphB4-SEAP-: absorbance at 450 nm, percentage with respect to hEphA4-SEAP-His as 100% (human EphB4) [%] | hEphB6-SEAP-: absorbance at 450 nm, percentage with respect to hEphA4-SEAP-His as 100% (human EphB6) [%] |
| --- | --- | --- | --- |
| B1 | 5.7 | 5.7 | 5.9 |
| B2 | 5.5 | 5.4 | 5.2 |
| B3 | 5.3 | 5.4 | 5.4 |
| B4 | 6.4 | 6.4 | 6.4 |
| B5 | 6.7 | 6.7 | 6.6 |
| B6 | 5.6 | 5.7 | 5.6 |
| B7 | 7.1 | 7.4 | 7.1 |
| B8 | 6.3 | 6.0 | 6.2 |
| B9 | 5.2 | 5.2 | 5.0 |
| B10 | 6.0 | 5.9 | 5.6 |
| B11 | 5.8 | 5.9 | 5.9 |
